Test results: publication PMC9293779 (2022)

Biological target: Unmodified H3 (15–39) (Homo sapiens, matured GFP-type chromophore; AG itself is the assayed negative control. Accession is from memory; wild-type AG assumed rather than the monomeric version)
Test: ITC

B1: Azami-Green (AG) protein alone (natural protein)
chain: MSVIKPEMKIKLCMRGTVNGHNFVIEGEGKGNPYEGTQILDLNVTEGAPLPFAYDILTTVFQYGNRAFTKYPADIQDYFKQTFPEGYHWERSMTYEDQGICTATSNISMRGDCFFYDIRFDGVNFPPNGPVMQKKTLKWEPSTEKMYVRDGVLKGDVNMALLLEGGGHYRCDFKTTYKAKKDVRLPDYHFVDHRIEILKHDKDYNKVKLYENAVARYSMLPSQAK
Q: For B1, which Kd is on record?
A: > 1000 µM
